In PMC9712776:

T1: GST-tagged SH3 domain of Bin1
T1 chain: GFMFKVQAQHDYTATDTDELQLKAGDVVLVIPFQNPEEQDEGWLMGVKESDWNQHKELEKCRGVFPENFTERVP


Target: T1, GST-tagged SH3 domain of Bin1
Assay: GST pulldown
Conditions: parent: 1.0, read off a plot
[1] = chain shown with the change, 12 µg GST-Bin-SH3, 6 µg purified Dyn2

ratio to parent [1] | ratio to parent (chain shown with the change;) | Binder
 | 1 | dynamin-2 (human Dyn2 isoform 1), wild type, P50570 S856E (protein) MGNRGMEELIPLVNKLQDAFSSIGQSCHLDLPQIAVVGGQSAGKSSVLENFVGRDFLPRGSGIVTRRPLILQLIFSKTEHAEFLHCKSKKFTDFDEVRQEIEAETDRVTGTNKGISPVPINLRVYSPHVLNLTLIDLPGITKVPVGDQPPDIEYQIKDMILQFISRESSLILAVTPANMDLANSDALKLAKEVDPQGLRTIGVITKLDLMDEGTDARDVLENKLLPLRRGYIGVVNRSQKDIEGKKDIRAALAAERKFFLSHPAYRHMADRMGTPHLQKTLNQQLTNHIRESLPALRSKLQSQLLSLEKEVEEYKNFRPDDPTRKTKALLQMVQQFGVDFEKRIEGSGDQVDTLELSGGARINRIFHERFPFELVKMEFDEKDLRREISYAIKNIHGVRTGLFTPDLAFEAIVKKQVVKLKEPCLKCVDLVIQELINTVRQCTSKLSSYPRLREETERIVTTYIREREGRTKDQILLLIDIEQSYINTNHEDFIGFANAQQRSTQLNKKRAIPNQGEILVIRRGWLTINNISLMKGGSKEYWFVLTAESLSWYKDEEEKEKKYMLPLDNLKIRDVEKGFMSNKHVFAIFNTEQRNVYKDLRQIELACDSQEDVDSWKASFLRAGVYPEKDQAENEDGAQENTFSMDPQLERQVETIRNLVDSYVAIINKSIRDLMPKTIMHLMINNTKAFIHHELLAYLYSSADQSSLMEESADQAQRRDDMLRMYHALKEALNIIGDISTSTVSTPVPPPVDDTWLQSASSHSPTPQRRPVSSIHPPGRPPAVRGPTPGPPLIPVPVGAAASFSAPPIPSRPGPQSVFANSDLFPAPPQIPSRPVRIPPGIPPGVPSRRPPAAPERPTIIRPAEPSLLD
 | 1.1 | dynamin-2 (human Dyn2 isoform 1), wild type, P50570 S856A (protein) MGNRGMEELIPLVNKLQDAFSSIGQSCHLDLPQIAVVGGQSAGKSSVLENFVGRDFLPRGSGIVTRRPLILQLIFSKTEHAEFLHCKSKKFTDFDEVRQEIEAETDRVTGTNKGISPVPINLRVYSPHVLNLTLIDLPGITKVPVGDQPPDIEYQIKDMILQFISRESSLILAVTPANMDLANSDALKLAKEVDPQGLRTIGVITKLDLMDEGTDARDVLENKLLPLRRGYIGVVNRSQKDIEGKKDIRAALAAERKFFLSHPAYRHMADRMGTPHLQKTLNQQLTNHIRESLPALRSKLQSQLLSLEKEVEEYKNFRPDDPTRKTKALLQMVQQFGVDFEKRIEGSGDQVDTLELSGGARINRIFHERFPFELVKMEFDEKDLRREISYAIKNIHGVRTGLFTPDLAFEAIVKKQVVKLKEPCLKCVDLVIQELINTVRQCTSKLSSYPRLREETERIVTTYIREREGRTKDQILLLIDIEQSYINTNHEDFIGFANAQQRSTQLNKKRAIPNQGEILVIRRGWLTINNISLMKGGSKEYWFVLTAESLSWYKDEEEKEKKYMLPLDNLKIRDVEKGFMSNKHVFAIFNTEQRNVYKDLRQIELACDSQEDVDSWKASFLRAGVYPEKDQAENEDGAQENTFSMDPQLERQVETIRNLVDSYVAIINKSIRDLMPKTIMHLMINNTKAFIHHELLAYLYSSADQSSLMEESADQAQRRDDMLRMYHALKEALNIIGDISTSTVSTPVPPPVDDTWLQSASSHSPTPQRRPVSSIHPPGRPPAVRGPTPGPPLIPVPVGAAASFSAPPIPSRPGPQSVFANSDLFPAPPQIPSRPVRIPPGIPPGVPSRRPPAAPARPTIIRPAEPSLLD

The next lines start with the binder.

Binder | ratio to parent [1] | ratio to parent (chain shown with the change;)
dynamin-2 (human Dyn2 isoform 1), wild type, P50570 S848A (protein) MGNRGMEELIPLVNKLQDAFSSIGQSCHLDLPQIAVVGGQSAGKSSVLENFVGRDFLPRGSGIVTRRPLILQLIFSKTEHAEFLHCKSKKFTDFDEVRQEIEAETDRVTGTNKGISPVPINLRVYSPHVLNLTLIDLPGITKVPVGDQPPDIEYQIKDMILQFISRESSLILAVTPANMDLANSDALKLAKEVDPQGLRTIGVITKLDLMDEGTDARDVLENKLLPLRRGYIGVVNRSQKDIEGKKDIRAALAAERKFFLSHPAYRHMADRMGTPHLQKTLNQQLTNHIRESLPALRSKLQSQLLSLEKEVEEYKNFRPDDPTRKTKALLQMVQQFGVDFEKRIEGSGDQVDTLELSGGARINRIFHERFPFELVKMEFDEKDLRREISYAIKNIHGVRTGLFTPDLAFEAIVKKQVVKLKEPCLKCVDLVIQELINTVRQCTSKLSSYPRLREETERIVTTYIREREGRTKDQILLLIDIEQSYINTNHEDFIGFANAQQRSTQLNKKRAIPNQGEILVIRRGWLTINNISLMKGGSKEYWFVLTAESLSWYKDEEEKEKKYMLPLDNLKIRDVEKGFMSNKHVFAIFNTEQRNVYKDLRQIELACDSQEDVDSWKASFLRAGVYPEKDQAENEDGAQENTFSMDPQLERQVETIRNLVDSYVAIINKSIRDLMPKTIMHLMINNTKAFIHHELLAYLYSSADQSSLMEESADQAQRRDDMLRMYHALKEALNIIGDISTSTVSTPVPPPVDDTWLQSASSHSPTPQRRPVSSIHPPGRPPAVRGPTPGPPLIPVPVGAAASFSAPPIPSRPGPQSVFANSDLFPAPPQIPSRPVRIPPGIPPGVPARRPPAAPSRPTIIRPAEPSLLD | 0.86 | 1.2
dynamin-2 (human Dyn2 isoform 1), wild type, P50570 S848E (protein) MGNRGMEELIPLVNKLQDAFSSIGQSCHLDLPQIAVVGGQSAGKSSVLENFVGRDFLPRGSGIVTRRPLILQLIFSKTEHAEFLHCKSKKFTDFDEVRQEIEAETDRVTGTNKGISPVPINLRVYSPHVLNLTLIDLPGITKVPVGDQPPDIEYQIKDMILQFISRESSLILAVTPANMDLANSDALKLAKEVDPQGLRTIGVITKLDLMDEGTDARDVLENKLLPLRRGYIGVVNRSQKDIEGKKDIRAALAAERKFFLSHPAYRHMADRMGTPHLQKTLNQQLTNHIRESLPALRSKLQSQLLSLEKEVEEYKNFRPDDPTRKTKALLQMVQQFGVDFEKRIEGSGDQVDTLELSGGARINRIFHERFPFELVKMEFDEKDLRREISYAIKNIHGVRTGLFTPDLAFEAIVKKQVVKLKEPCLKCVDLVIQELINTVRQCTSKLSSYPRLREETERIVTTYIREREGRTKDQILLLIDIEQSYINTNHEDFIGFANAQQRSTQLNKKRAIPNQGEILVIRRGWLTINNISLMKGGSKEYWFVLTAESLSWYKDEEEKEKKYMLPLDNLKIRDVEKGFMSNKHVFAIFNTEQRNVYKDLRQIELACDSQEDVDSWKASFLRAGVYPEKDQAENEDGAQENTFSMDPQLERQVETIRNLVDSYVAIINKSIRDLMPKTIMHLMINNTKAFIHHELLAYLYSSADQSSLMEESADQAQRRDDMLRMYHALKEALNIIGDISTSTVSTPVPPPVDDTWLQSASSHSPTPQRRPVSSIHPPGRPPAVRGPTPGPPLIPVPVGAAASFSAPPIPSRPGPQSVFANSDLFPAPPQIPSRPVRIPPGIPPGVPERRPPAAPSRPTIIRPAEPSLLD | 0.42 | 0.66
